In this data set the test system is Nc1ncnc2c1ncn2[C@@H]1O[C@H](COP(=O)(O)OP(=O)(O)OP(=O)(O)O)[C@@H](O)[C@H]1O. Description: purified protein. Conditions: co-substrate acetate, MgCl2 6.6 mM, HEPES 84 mM, 40 °C.

Data on 2 substances can be found in PMC4857615.

A word on the Km: it is the concentration of substrate that gives half-maximal velocity. As a reminder, the kcat is the number of substrate molecules converted per active site and unit of time at saturation. In general, kcat/Km refers to the second-order rate constant that governs catalysis at low substrate concentration.

Turning to “EutP (Salmonella enterica subsp. enterica serovar Typhimurium str. LT2)”, the Km came to 500 ± 200 µM, the catalytic constant (kcat) stood at 657 s⁻¹ and the kcat/Km was 1.31e+06 ± 377000 M⁻¹ s⁻¹.

As for “EutQ (Salmonella enterica subsp. enterica serovar Typhimurium str. LT2)”, the Michaelis-Menten constant (Km) stood at 500 ± 100 µM, the kcat was 434 s⁻¹ and the specificity constant (kcat/Km) is 868000 ± 145000 M⁻¹ s⁻¹.
